B1: TRIM43 (parent)
chain: RAQMIRNEYRKLHPVLHKEEKQHL

Variants of: B1
Assay: protein stability index of a GFP-peptide fusion (GPS, HEK-293T) (PSI 1-6); higher = more stable
Conditions: c terminus: a fixed tail appended
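Also: lentivirally expressed fusions sorted by FACS into six bins by GFP to DsRed ratio, PSI derived from sequencing read proportions per bin multiplied by bin number.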

Q: For K18V, which protein stability index is on record?
A: 3.26

Q: For K18N, which protein stability index is on record?
A: 3.2

Q: For K18G, which protein stability index is on record?
A: 3.37

Q: With K18I as the variant, how does the protein stability index read?
A: 2.6

Q: With K18F as the variant, how does the protein stability index read?
A: 2.4

Q: Which protein stability index does the source give for R1T here?
A: 2.85

Q: Which protein stability index does the source give for R1G here?
A: 3.55

Q: Which protein stability index does the source give for R1C here?
A: 2.17

Q: Which protein stability index does the source give for R1D here?
A: 3.89

Q: Which protein stability index does the source give for R1N here?
A: 3.44

Q: With R1H as the variant, how does the protein stability index read?
A: 3.47

Q: For R1Q, which protein stability index is on record?
A: 3.04

Q: With R1A as the variant, how does the protein stability index read?
A: 3.44

Q: With K11V as the variant, how does the protein stability index read?
A: 3.4

Q: For K11D, which protein stability index is on record?
A: 4.29

Q: Which protein stability index does the source give for K11G here?
A: 3.76

Q: With K11H as the variant, how does the protein stability index read?
A: 3.94

Q: With K11T as the variant, how does the protein stability index read?
A: 3.42

Q: With K11L as the variant, how does the protein stability index read?
A: 3.49

Q: For E19Q, which protein stability index is on record?
A: 3.22

Q: Which protein stability index does the source give for E19S here?
A: 2.92

Q: For E19I, which protein stability index is on record?
A: 1.73

Q: For E19R, which protein stability index is on record?
A: 2.93

Q: With E19K as the variant, how does the protein stability index read?
A: 3.41

Q: For E19M, which protein stability index is on record?
A: 2.23

Q: Which protein stability index does the source give for E19H here?
A: 2.34

Q: Which protein stability index does the source give for E19F here?
A: 1.98

Q: For E19A, which protein stability index is on record?
A: 2.17

Q: Which protein stability index does the source give for V15L here?
A: 2.63

Q: With V15M as the variant, how does the protein stability index read?
A: 3.67

Q: With V15D as the variant, how does the protein stability index read?
A: 3.64

Q: For V15C, which protein stability index is on record?
A: 3

Q: Which protein stability index does the source give for V15Y here?
A: 2.7

Q: With M4G as the variant, how does the protein stability index read?
A: 3.66

Q: With M4E as the variant, how does the protein stability index read?
A: 3.86

Q: With M4H as the variant, how does the protein stability index read?
A: 3.46

Q: Which protein stability index does the source give for M4S here?
A: 3.07

Q: For M4L, which protein stability index is on record?
A: 3.2

Q: For Q3N, which protein stability index is on record?
A: 3.19

Q: With Q3T as the variant, how does the protein stability index read?
A: 3.27

Q: Which protein stability index does the source give for Q3K here?
A: 3.7

Q: With Q3H as the variant, how does the protein stability index read?
A: 3.13

Q: Which protein stability index does the source give for Q3F here?
A: 2.33

Q: Which protein stability index does the source give for Q3Y here?
A: 2.54

Q: Which protein stability index does the source give for Q3V here?
A: 2.63

Q: With Q3G as the variant, how does the protein stability index read?
A: 3.04

Q: With Q3S as the variant, how does the protein stability index read?
A: 3.22

Q: Which protein stability index does the source give for A2T here?
A: 3.17

Q: Which protein stability index does the source give for A2L here?
A: 2.96

Q: Which protein stability index does the source give for A2S here?
A: 2.99

Q: Which protein stability index does the source give for A2H here?
A: 3.26

Q: Which protein stability index does the source give for A2M here?
A: 2.91

Q: For A2D, which protein stability index is on record?
A: 3.51

Q: Which protein stability index does the source give for Q22M here?
A: 2.3

Q: With Q22W as the variant, how does the protein stability index read?
A: 2

Q: Which protein stability index does the source give for Q22Y here?
A: 2.71

Q: For Q22K, which protein stability index is on record?
A: 2.99

Q: With Q22I as the variant, how does the protein stability index read?
A: 2.54

Q: Which protein stability index does the source give for L12V here?
A: 2.97

Q: With L12D as the variant, how does the protein stability index read?
A: 4.02

Q: For L12K, which protein stability index is on record?
A: 3.7

Q: Which protein stability index does the source give for L12P here?
A: 3.96

Q: For L12N, which protein stability index is on record?
A: 4.16

Q: Which protein stability index does the source give for L12H here?
A: 4.27

Q: With E20W as the variant, how does the protein stability index read?
A: 1.66

Q: Which protein stability index does the source give for E20F here?
A: 1.91

Q: With E20K as the variant, how does the protein stability index read?
A: 2.95

Q: For E20N, which protein stability index is on record?
A: 2.32

Q: Which protein stability index does the source give for E20Y here?
A: 1.83

Q: With E20D as the variant, how does the protein stability index read?
A: 3.38

Q: For E20T, which protein stability index is on record?
A: 2.83

Q: With E20Q as the variant, how does the protein stability index read?
A: 2.76

Q: For E20V, which protein stability index is on record?
A: 1.97

Q: Which protein stability index does the source give for I5Y here?
A: 2.92

Q: For I5A, which protein stability index is on record?
A: 4.03

Q: With I5L as the variant, how does the protein stability index read?
A: 3.92

Q: With I5S as the variant, how does the protein stability index read?
A: 3.67

Q: With I5E as the variant, how does the protein stability index read?
A: 4.06

Q: For I5N, which protein stability index is on record?
A: 4.04

Q: For I5W, which protein stability index is on record?
A: 2.87

Q: For E8T, which protein stability index is on record?
A: 2.56

Q: For E8R, which protein stability index is on record?
A: 2.89

Q: For E8Y, which protein stability index is on record?
A: 2.51

Q: Which protein stability index does the source give for E8V here?
A: 2.33

Q: With E8F as the variant, how does the protein stability index read?
A: 2.91

Q: With E8L as the variant, how does the protein stability index read?
A: 1.75

Q: With E8D as the variant, how does the protein stability index read?
A: 3.21

Q: With E8C as the variant, how does the protein stability index read?
A: 2.59

Q: Which protein stability index does the source give for H17G here?
A: 3.56

Q: Which protein stability index does the source give for H17R here?
A: 3.79

Q: For H17F, which protein stability index is on record?
A: 2.53

Q: With H17S as the variant, how does the protein stability index read?
A: 2.67

Q: Which protein stability index does the source give for H17Y here?
A: 2.96

Q: For H17I, which protein stability index is on record?
A: 2.8

Q: With H17T as the variant, how does the protein stability index read?
A: 3.2

Q: Which protein stability index does the source give for H17A here?
A: 2.37

Q: For H17V, which protein stability index is on record?
A: 3.74

Q: With Y9M as the variant, how does the protein stability index read?
A: 3.97

Q: Which protein stability index does the source give for Y9G here?
A: 3.96

Q: Which protein stability index does the source give for Y9H here?
A: 4.12

Q: For Y9K, which protein stability index is on record?
A: 3.65

Q: With Y9N as the variant, how does the protein stability index read?
A: 3.79

Q: With L24E as the variant, how does the protein stability index read?
A: 4.61

Q: Which protein stability index does the source give for L24C here?
A: 3.65

Q: Which protein stability index does the source give for L24V here?
A: 3.67

Q: Which protein stability index does the source give for L24T here?
A: 4.01

Q: For L24G, which protein stability index is on record?
A: 3.67

Q: Which protein stability index does the source give for L24H here?
A: 3.61

Q: With L24A as the variant, how does the protein stability index read?
A: 3.59

Q: Which protein stability index does the source give for L24R here?
A: 3.06

Q: For L24K, which protein stability index is on record?
A: 3.77

Q: Which protein stability index does the source give for L24N here?
A: 4.01

Q: For L24Y, which protein stability index is on record?
A: 3.34

Q: For K21F, which protein stability index is on record?
A: 2.58

Q: For K21S, which protein stability index is on record?
A: 2.81

Q: For K21L, which protein stability index is on record?
A: 2.4

Q: With K21V as the variant, how does the protein stability index read?
A: 3.37

Q: Which protein stability index does the source give for H13Q here?
A: 3.56

Q: Which protein stability index does the source give for H13I here?
A: 2.92

Q: For H13S, which protein stability index is on record?
A: 3.4

Q: Which protein stability index does the source give for H13D here?
A: 3.75

Q: With H13P as the variant, how does the protein stability index read?
A: 3.19

Q: Which protein stability index does the source give for H13F here?
A: 2.82

Q: Which protein stability index does the source give for H13E here?
A: 4.06

Q: For H13V, which protein stability index is on record?
A: 3.11

Q: For L16I, which protein stability index is on record?
A: 3.31

Q: Which protein stability index does the source give for L16E here?
A: 4.04

Q: With L16A as the variant, how does the protein stability index read?
A: 3.52

Q: For L16Q, which protein stability index is on record?
A: 3.85

Q: With L16G as the variant, how does the protein stability index read?
A: 3.1

Q: For L16M, which protein stability index is on record?
A: 3.94

Q: With L16P as the variant, how does the protein stability index read?
A: 3.92

Q: For L16K, which protein stability index is on record?
A: 3.85

Q: Which protein stability index does the source give for R6F here?
A: 2.44

Q: With R6H as the variant, how does the protein stability index read?
A: 3.54

Q: For R6S, which protein stability index is on record?
A: 3.52

Q: With R6M as the variant, how does the protein stability index read?
A: 2.19

Q: Which protein stability index does the source give for P14C here?
A: 2.42

Q: For P14M, which protein stability index is on record?
A: 2.5

Q: For P14T, which protein stability index is on record?
A: 2.77

Q: With P14E as the variant, how does the protein stability index read?
A: 3.28

Q: With P14F as the variant, how does the protein stability index read?
A: 2.95

Q: With P14G as the variant, how does the protein stability index read?
A: 3.11

Q: For N7S, which protein stability index is on record?
A: 2.83

Q: With N7F as the variant, how does the protein stability index read?
A: 2.44

Q: With N7G as the variant, how does the protein stability index read?
A: 3.08

Q: For N7P, which protein stability index is on record?
A: 4.17

Q: For N7E, which protein stability index is on record?
A: 2.32

Q: With N7K as the variant, how does the protein stability index read?
A: 3.44

Q: With N7C as the variant, how does the protein stability index read?
A: 3

Q: Which protein stability index does the source give for N7Q here?
A: 3.33

Q: Which protein stability index does the source give for N7A here?
A: 2.39

Q: With N7M as the variant, how does the protein stability index read?
A: 2.98

Q: With N7W as the variant, how does the protein stability index read?
A: 1.96

Q: Which protein stability index does the source give for N7H here?
A: 3.28

Q: For H23W, which protein stability index is on record?
A: 2.61

Q: With H23P as the variant, how does the protein stability index read?
A: 3.09

Q: For H23N, which protein stability index is on record?
A: 3.13

Q: Which protein stability index does the source give for H23V here?
A: 3.17

Q: For H23C, which protein stability index is on record?
A: 3.51

Q: Which protein stability index does the source give for H23Q here?
A: 3.35

Q: With H23S as the variant, how does the protein stability index read?
A: 3.45

Q: Which protein stability index does the source give for R10Q here?
A: 3.84

Q: Which protein stability index does the source give for R10W here?
A: 2.99

Q: Which protein stability index does the source give for R10D here?
A: 4.21

Q: With R10C as the variant, how does the protein stability index read?
A: 3.19

Q: Which protein stability index does the source give for R10P here?
A: 3.76

Source: the supplement of paper PMC10567573
